Tests used:
CHIP = target: T1, CHIP (Mus musculus, UniProt Q9WUD1); assay: Co-immunoprecipitation of bOVA with anti-CHIP; assay type: binding; details: DC2.4 cells incubated with bOVA
T1 construct: endogenous in cells; host or cells: DC2.4 mouse dendritic cell line
T1 sequence (Q9WUD1 1-304): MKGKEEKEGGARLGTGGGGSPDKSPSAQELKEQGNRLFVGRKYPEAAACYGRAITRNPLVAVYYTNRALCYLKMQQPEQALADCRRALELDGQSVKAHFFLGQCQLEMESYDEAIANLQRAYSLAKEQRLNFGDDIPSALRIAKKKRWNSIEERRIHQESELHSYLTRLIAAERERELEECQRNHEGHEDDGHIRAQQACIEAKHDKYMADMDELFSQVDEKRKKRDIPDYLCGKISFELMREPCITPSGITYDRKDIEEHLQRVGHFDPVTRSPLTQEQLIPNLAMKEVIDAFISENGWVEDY
Description: (§1) 2×10^7 DC2.4 or BMDC cells were cultured for four hours in a medium containing 10 μM MG-132 in the presence of bOVA at 250 μg mL^−1. Cells were lysed in 20 mM HEPES pH7.6 containing 1% digitonin and protease inhibitors to collect biotin-labeled samples. The samples were cleared of impurities in advance using protein G sepharose (Amersham Pharmacia Biotech), and after incubation with antibodies for precipitation (anti-Sec61β, anti Sec61α, anti-VCP, anti-BiP, anti-PDI, anti-calreticulin, anti-TAP1, and anti-TAP2), the immunoprecipitates were collected using protein G. When chicken anti-CHIP antibody was used, immunoprecipitates were collected using a rabbit anti-IgY column (a person, MBL). The precipitated samples were analyzed by SDS-PAGE and Western blotting.

Sec61α = target: T2, Sec61α (Mus musculus, UniProt P61620); assay: Co-immunoprecipitation of bOVA with anti-Sec61α; assay type: binding; details: DC2.4 cells incubated with bOVA
T2 construct: endogenous in cells; host or cells: DC2.4 mouse dendritic cell line
T2 sequence (P61620 whole entry): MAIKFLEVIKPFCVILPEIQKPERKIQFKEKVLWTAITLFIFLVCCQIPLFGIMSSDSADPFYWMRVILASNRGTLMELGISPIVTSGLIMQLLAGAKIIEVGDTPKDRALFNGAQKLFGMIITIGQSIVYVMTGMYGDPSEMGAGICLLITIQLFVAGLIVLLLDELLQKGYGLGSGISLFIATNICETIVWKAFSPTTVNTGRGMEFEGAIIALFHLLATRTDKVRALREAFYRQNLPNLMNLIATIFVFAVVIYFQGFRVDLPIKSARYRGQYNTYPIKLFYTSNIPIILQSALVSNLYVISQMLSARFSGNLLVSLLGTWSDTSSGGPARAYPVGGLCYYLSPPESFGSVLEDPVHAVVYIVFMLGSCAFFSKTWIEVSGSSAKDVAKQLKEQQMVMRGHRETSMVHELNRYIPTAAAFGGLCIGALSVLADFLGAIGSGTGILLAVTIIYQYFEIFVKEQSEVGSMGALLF
T2 sequence (Q9CQS8 2-96 partner limits assumed): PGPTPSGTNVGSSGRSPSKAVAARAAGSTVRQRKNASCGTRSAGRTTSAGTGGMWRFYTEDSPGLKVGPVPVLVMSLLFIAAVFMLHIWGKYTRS
T2 sequence (P60060 whole entry partner): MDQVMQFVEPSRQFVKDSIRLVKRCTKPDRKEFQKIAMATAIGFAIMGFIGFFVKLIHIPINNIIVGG
Description: as §1

DC2.4 cells [1] = assay: Uptake of antigen into DC2.4 cells; assay type: cell-based, mouse; details: CHIP-knocked-down DC2.4 (C4 and C4F-1)
Source text: When CHIP-knocked-down DC2.4 cells (C4 and C4F-1) were produced to examine the polyubiquitination of bOVA when CHIP is knocked down, the uptake of bOVA into the CHIP-knocked-down DC2.4 cells was only about 70% that of uptake into the parental DC2.4 cells (FIGS. 4d and 4f). Despite this fact, polyubiquitination of bOVA was reduced to 34% in CHIP-knocked-down cells (FIG. 4f). The decrease in the amount of accumulated OVA was slowed down in CHIP-knocked-down cells (FIGS. 4d and 4e).
Next, DC2.4 cells were incubated for a set amount of time with OVA in the presence or absence of lactacystin (LC), and OVA taken up into the cells was measured. OVA taken up into cells in the presence or absence of Hsp90 was measured similarly.

DC2.4 cells [2] = assay: Polyubiquitination of antigen taken up by DC2.4 cells (Western blot, anti-polyubiquitin antibody); assay type: cell-based, mouse; details: CHIP-knocked-down DC2.4 (C4) vs parental DC2.4
OT-I CD8+ T cells = assay: Antigen presentation level: IL-2 production by OT-I CD8+ T cells (ELISA); assay type: cell-based, mouse; details: DC2.4, dose-response OVA vs bOVA
Source text: Whether knock-down of cellular components involved in ERAD decreases the cross-presentation of exogenous OVA antigen was examined using a system for evaluating the level of antigen presentation, which uses naive CD8^+ T cells from OT-I mice and DC2.4 cells. The DC2.4 cells used as a model of dendritic cells are of the H-2 Kb mouse MHC class I haplotype. OT-I (H-2 Kb) mice are transgenic mice expressing a T cell receptor (TCRα and β) that recognizes an antigenic peptide (SIINFEKL) (SEQ ID NO: 15) derived from OVA presented on the H-2 Kb molecules. The CD8^+ cells of OT-I mice are activated when they recognize OVA peptides presented by BMDCs derived from H-2 Kb mice or by DC2.4 cells. When OVA or bOVA is incubated with and affixed onto DC2.4 cells and the cells are further incubated with naive CD8^+ T cells of OT-I mice, the amount of IL-2 produced by OT-I CD8^+ T cells serves as an index of T-cell stimulation as a result of OVA antigen presented by DC2.4 cells.
Parental or knocked-down DC2.4 cells were pre-incubated in a culture medium supplemented with 50 μg mL^−1 polymyxin B for 30 minutes in the presence or absence of lactacystin or MG-132, and incubated with OVA (250 μg mL^−1) or SIINFEKL (SEQ ID NO: 15) peptides (10 ng mL^−1) for six hours. The cells were washed, fixed with 1% paraformaldehyde, and aliquoted into microtiter plates (5×10^4 per well). 5×10^4 CD8^+ T cells purified from splenocytes of OT-1 mice using magnetic beads were added to each well and after a 24-hour incubation, the IL-2 secretion was measured by ELISA (BD Biosciences) in triplicate. […]

calreticulin = target: T3, calreticulin (Mus musculus, UniProt P14211); assay: Co-immunoprecipitation of bOVA with anti-calreticulin; assay type: binding; details: DC2.4 cells incubated with bOVA
T3 construct: Three types of ER resident proteins; endogenous in cells; host or cells: DC2.4 mouse dendritic cell line
T3 sequence (P14211 18-416): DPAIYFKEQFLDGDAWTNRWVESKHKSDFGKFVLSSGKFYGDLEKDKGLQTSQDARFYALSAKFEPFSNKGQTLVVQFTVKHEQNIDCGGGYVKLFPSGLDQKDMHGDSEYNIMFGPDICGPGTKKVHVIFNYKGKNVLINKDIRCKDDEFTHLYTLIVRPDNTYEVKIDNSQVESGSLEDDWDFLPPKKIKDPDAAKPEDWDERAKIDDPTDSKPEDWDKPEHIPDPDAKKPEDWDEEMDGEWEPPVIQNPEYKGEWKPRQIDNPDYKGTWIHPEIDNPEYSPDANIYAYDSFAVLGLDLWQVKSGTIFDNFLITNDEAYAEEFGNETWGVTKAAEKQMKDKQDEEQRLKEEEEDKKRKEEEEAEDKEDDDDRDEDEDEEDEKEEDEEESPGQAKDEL
Description: as §1

DC2.4 cells [3] = tested on: DC2.4 cells
Description: Intracellular localization of foreign antigens was examined by cell fractionation methods. Chicken ovalbumin (OVA) was used as an antigen model, and DC2.4 (haplotype H-2 Kb), a cultured cell line of mouse dendritic cells, was used as a model for dendritic cells. […] BMDCs with a haplotype of H-2 Kb, the same as that of DC2.4, were used as the control. BMDCs were induced from the bone marrow cells of C57BL/6 mice (SLC) in RPMI-1640 supplemented with 5% FCS using 5 ng/mL GM-CSF (MBL), and those cells purified by magnetic beads after five days of culturing were used.
DC2.4 cells made to take up bOVA antigens were suspended in 10 mM Tris-HCl (pH7.4) containing 250 mM sucrose, this was homogenized using glass beads, centrifuged for 30 minutes at 250,000×g, and then fractionated. The supernatant was used as the soluble fraction; the precipitates were suspended in the same buffer as described above and used as the microsomal fraction. A fixed amount was incubated in the presence or absence of 1% TritonX-100, and together with or without 100 μg mL^−1 trypsin. Before collecting bOVA, soybean trypsin inhibitor (Sigma) was added at 500 μg mL^−1.

B1: bOVA: biotin-labeled OVA antigen (protein)
chain: GSIGAASMEFCFDVFKELKVHHANENIFYCPIAIMSALAMVYLGAKDSTRTQINKVVRFDKLPGFGDSIEAQCGTSVNVHSSLRDILNQITKPNDVYSFSLASRLYAEERYPILPEYLQCVKELYRGGLEPINFQTAADQARELINSWVESQTNGIIRNVLQPSSVDSQTAMVLVNAIVFKGLWEKAFKDEDTQAMPFRVTEQESKPVQMMYQIGLFRVASMASEKMKILELPFASGTMSMLVLLPDEVSGLEQLESIINFEKLTEWTSSNVMEERKIKVYLPRMKMEEKYNLTSVLMAMGITDVFSSSANLSGISSAESLKISQAVHAAHAEINEAGREVVGSAEAGVDAASVSEEFRADHPFLFCIKHIATNAVLFFGRCVSP
- interaction with CHIP (co-immunoprecipitation) (CHIP): interacts
- interaction with Sec61α (co-immunoprecipitation) (Sec61α): interacts
- uptake of bOVA into CHIP-knocked-down cells relative to parental DC2.4 cells (DC2.4 cells [1]): about 70%
- polyubiquitination of bOVA in CHIP-knocked-down cells (DC2.4 cells [2]): 34%
- antigenicity for stimulation of CD8+ OT-I T cells (IL-2 production) (OT-I CD8+ T cells): equally antigenic
- interaction with calreticulin (co-immunoprecipitation) (calreticulin): interacts
- bOVA taken up by cells recovered as trypsin-resistant bOVA from the microsomal fraction (DC2.4 cells [3]): ≥ 70%

From patent publication US20080064048A1, “Methods for Selecting Proteins that are Readily Presented as Antigens on Dendritic Cells” (Medical and Biological Laboratories, Co., Ltd., priority 2004, published 2008)
